Test results from patent US20250262210A1 (TRUSTEES OF COLUMBIA UNIVERSITY IN THE CITY OF NEW YORK, published 2025).

Molecular target: T1, SBNO2 (human, UniProt Q9Y2G9 1-1366, limits assumed)
T1 sequence (looked up): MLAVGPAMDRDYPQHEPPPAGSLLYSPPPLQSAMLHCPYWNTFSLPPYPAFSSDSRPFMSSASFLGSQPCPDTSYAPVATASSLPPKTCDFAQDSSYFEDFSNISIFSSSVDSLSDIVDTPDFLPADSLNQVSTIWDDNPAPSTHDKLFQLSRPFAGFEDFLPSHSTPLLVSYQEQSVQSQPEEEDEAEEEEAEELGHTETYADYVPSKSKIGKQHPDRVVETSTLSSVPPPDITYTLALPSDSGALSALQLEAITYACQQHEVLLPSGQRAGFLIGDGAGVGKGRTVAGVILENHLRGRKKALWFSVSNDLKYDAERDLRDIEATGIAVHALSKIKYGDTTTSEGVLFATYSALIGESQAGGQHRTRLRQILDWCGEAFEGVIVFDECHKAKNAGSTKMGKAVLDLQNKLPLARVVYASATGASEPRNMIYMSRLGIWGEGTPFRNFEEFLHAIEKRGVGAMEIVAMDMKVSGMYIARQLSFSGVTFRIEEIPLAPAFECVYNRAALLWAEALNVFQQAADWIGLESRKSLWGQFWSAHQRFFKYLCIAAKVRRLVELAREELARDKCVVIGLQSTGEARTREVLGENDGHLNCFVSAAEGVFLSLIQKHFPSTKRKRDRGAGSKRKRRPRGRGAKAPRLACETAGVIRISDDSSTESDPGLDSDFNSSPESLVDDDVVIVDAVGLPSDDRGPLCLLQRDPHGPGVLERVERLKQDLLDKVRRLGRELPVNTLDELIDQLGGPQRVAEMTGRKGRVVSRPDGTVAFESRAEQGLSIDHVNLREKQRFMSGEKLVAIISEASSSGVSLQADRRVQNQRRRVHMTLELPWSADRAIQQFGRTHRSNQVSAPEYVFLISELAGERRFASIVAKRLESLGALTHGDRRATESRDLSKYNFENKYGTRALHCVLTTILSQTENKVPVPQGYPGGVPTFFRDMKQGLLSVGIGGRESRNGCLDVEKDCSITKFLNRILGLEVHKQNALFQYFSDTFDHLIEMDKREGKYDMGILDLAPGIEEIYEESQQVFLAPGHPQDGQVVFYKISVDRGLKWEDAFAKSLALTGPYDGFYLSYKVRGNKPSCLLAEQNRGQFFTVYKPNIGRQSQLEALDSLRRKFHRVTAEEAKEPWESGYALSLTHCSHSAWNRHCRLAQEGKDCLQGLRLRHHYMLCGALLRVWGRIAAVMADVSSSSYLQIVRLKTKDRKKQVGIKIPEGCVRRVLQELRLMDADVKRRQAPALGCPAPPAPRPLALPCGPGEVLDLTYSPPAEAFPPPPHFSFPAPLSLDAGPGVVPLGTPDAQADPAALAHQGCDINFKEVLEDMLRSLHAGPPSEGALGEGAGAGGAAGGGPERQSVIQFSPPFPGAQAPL
Assay: IP/MS, LZTR1 wild type-FLAG, U87
Method in brief: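 Extracted peptides in 3% acetonitrile/0.1% formic acid ran on a 50 cm C18 column into an Orbitrap Fusion, with MaxQuant identification and spectral counting.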

binding result: binds
B1: LZTR1-FLAG (other, human, UniProt Q8N653 1-840, looked up)
chain: MAGPGSTGGQIGAAALAGGARSKVAPSVDFDHSCSDSVEYLTLNFGPFETVHRWRRLPPCDEFVGARRSKHTVVAYKDAIYVFGGDNGKTMLNDLLRFDVKDCSWCRAFTTGTPPAPRYHHSAVVYGSSMFVFGGYTGDIYSNSNLKNKNDLFEYKFATGQWTEWKIEGRLPVARSAHGATVYSDKLWIFAGYDGNARLNDMWTIGLQDRELTCWEEVAQSGEIPPSCCNFPVAVCRDKMFVFSGQSGAKITNNLFQFEFKDKTWTRIPTEHLLRGSPPPPQRRYGHTMVAFDRHLYVFGGAADNTLPNELHCYDVDFQTWEVVQPSSDSEVGGAEVPERACASEEVPTLTYEERVGFKKSRDVFGLDFGTTSAKQPTQPASELPSGRLFHAAAVISDAMYIFGGTVDNNIRSGEMYRFQFSCYPKCTLHEDYGRLWESRQFCDVEFVLGEKEECVQGHVAIVTARSRWLRRKITQARERLAQKLEQEAAPVPREAPGVAAGGARPPLLHVAIREAEARPFEVLMQFLYTDKIKYPRKGHVEDVLLIMDVYKLALSFQLCRLEQLCRQYIEASVDLQNVLVVCESAARLQLSQLKEHCLNFVVKESHFNQVIMMKEFERLSSPLIVEIVRRKQQPPPRTPLDQPVDIGTSLIQDMKAYLEGAGAEFCDITLLLDGHPRPAHKAILAARSSYFEAMFRSFMPEDGQVNISIGEMVPSRQAFESMLRYIYYGEVNMPPEDSLYLFAAPYYYGFYNNRLQAYCKQNLEMNVTVQNVLQILEAADKTQALDMKRHCLHIIVHQFTKVSKLPTLRSLSQQLLLDIIDSLASHISDKQCAELGADI
notes: Expressed in HEK 293T, HeLa or U87 cells; used as cell lysate; also called LZTR1 wild type-FLAG; LZTR1 WT; not shown: FLAG tag at the C-terminus
